According to the nanobody polyreactivity screen of Harvey et al. (2022):

Assay: yeast display, Sf9 membrane polyspecificity reagent, FACS + sequencing; frameworks hold sequencing errors
In short: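 A synthetic nanobody library was expressed on Saccharomyces cerevisiae BJ5465 by galactose induction for 36–48 hours. The library was stained for 1 hour at 4 °C with 10% biotinylated, detergent-solubilized Sf9 membrane reagent and enriched with streptavidin microbeads before FACS. Low and high (top ~1%) gates were set on anti-HA fluorescence for expression and streptavidin fluorescence for reagent binding, and each polyreactivity label reflects the gate of origin.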

Row | Sequence | polyreactivity (PSR sort gate)
1 | QVQLQESGGGLVQAGGSLRLSCAASGNIFLGDTMGWYRQAPGKEREFVAGIARGGNPYYADSVKGRFTISRNNAKNTVYLQKNSLKAEDTAVHYCAVQRSHASDYNYWGQGTQVTVSS | low polyreactivity
2 | QVQLVESGGGLVQAGGSLRLSCAASGFTFKWYAMGWYRQAPGKERELVATITIGGRTNYADSVKGRFTISRDNAKNTVYLQMNSLKPEDTAVYYCAAESGKIVDFVWVLAYPRLDYWGQGTQVTVSS | low polyreactivity
3 | QVQLVESGGGLVQAGGSLRLSCAASGSTFSGNAMGWYRQAPGKERELVARIRWSTGSTYYADSVKGRFTISRDNAKNTVYLQMNSLKPEDTAVYYCNARGTPWRYGGDYWGQGTQVTVSS | low polyreactivity
4 | QVQLVESGGGLVQAGGSLRLSCASSGRTFTHYAMGWYRQAPGKERELVASISDGGRTHYADSVTGRFTISRDNAKNTVYLQMNSLKPEDTAVYYCATDRYPTRRYDYWGQGTQVTVSS | low polyreactivity
5 | QVHLVESGGGLVQAGGILRLSCAASGFTFTSNAMGWYRQAPGKEREFVADISNIGGDTTYADSVKGRFTISRDNAKNTVYLQMNSLKPEDTAVYYCNADFAFIENDYWGQGTQVTVSS | low polyreactivity
6 | QVQLVESGGGLVQAGGSLRLSCAASGFIFASNTMGWYRQAPGKERELVAAISSRGGRTYYAASVKGRFTISRDNAKNTVYLQMNSLKPEDTAVYYCAAVQKGDSTLLRTKGGYWGQGTQVTVSS | high polyreactivity
7 | QVQLVESGGGLVQAGGSLRLSCAASGSIYRRYAMGWYRQAPGKERELVAAINQSGGRTYYADSVKGRFTISRDNAKNTVYLQMNSLKPEDTAVYYCAARYYGRVGGDSIGYNYWGQGTQVTVSS | high polyreactivity
8 | QVQLVESGGGLVQAGGSLRLSCAASGSIFIWYAMAWYRQAPWKERELVAAIRSGGSTYYADSVKGRFTISRDNAKNTVYLQMNSLKPEDTAVYYCAKVLTWRGYRYNYWGQGTQVTVSS | low polyreactivity
9 | QVQLVDSGGGLVQAGGRLRLSCAASGRTFVRYAMGWYRQAPGKERELVATIRWRGGSTYYADSVKGRFTISRDNAKNTVYLQMNSLKPDDTAVYYCAARRYSSGLTDDYWGQGTQVTVSS | high polyreactivity
10 | QVQLVESGGGLVQAGGSLRLSCAASGSISWVYAMGWYRQAPGKERELVADITDSGDSTYYADSVKGRFTISRDNAKNTVYLQMNSLKPEDTAVYYCAADGWRHYYIYWPYNYWGQGTQVTVSS | low polyreactivity
11 | QVQLVESGGGLVQAGGSLRLSCAASGIIFPRYAMGWYRQAPGKERELVAAITKRGGSTYYADSVKGRFTISRDNAKNTVYLQMNSLKPEDTAVYYCAADDNSGYYYWGQGTQVTVSS | high polyreactivity
12 | QVQLVESGGGLVQAGGSLRLSCAASGFTLDKYAMGSNRQAPGTERELVAAINWSGGSTYYADSVKGRFTISRDNAKNTVYLQMNSLKPEDTAVYYCNAQAYRRRRYYYWGQGTQVTVSS | high polyreactivity
13 | QVQLVESGGGLVQAGGSLRISCAASGRIFLRNDMGWYRQAPGKERELVAGISSDGSTYYADSVKGRFTISRDNAKNTVYLQMNSLKPEDTAVYYCAAERWGNPTDYQFWRPYDYWGQGTQVTVSS | low polyreactivity
14 | QVQLVESGGGLVQAGGSLRLSCAASGFTFKYNAMGWYRHAPGKERELVAAISSSDGTNYADSVKGRFTISRDNAKNTVYLQMNSLKQEDTAVYYCAADYFYLEDYYYWGQGSQVTVSS | low polyreactivity
15 | QVQLVESGGGLVQAGGSLRLSCAASGSTFCTYAMGWYRQAPGKERELVAAITQRGASTYYADSVKGRFTISRDNAKNTVYLQMNSLKPEDTAVYYCAAYKRGRPEMDYWGQGTQVSVSS | high polyreactivity
16 | QVQLVESGGGLVQAGGSLRLSCAASGRTFYPNAMGWYRQAPRKERELVADITYSGASTYYADSVKGRFTISRDNAKNSVFLQMNSLKPEDTAVYYCNADESGVLVYVPYDYLGQGTQVTVSS | low polyreactivity
17 | QVQLVESGGVLVQAGGSLRLSCAASGYIFNKYVMGWYRPAPGKERELVAAISASGGSTYYADSVKGRFTLSRDNAKNTVYLQMNSLKPEDTAVYYCAATLYRRMDYWGQGTQVTVSS | high polyreactivity
18 | QVQLVESGGGLVQAGGILRLSCAASGSIFVNNAMGLYRQAPGKERELVAAITSGTRTNYADSVKGRFTISRDNAKNTVYLQMNSLKPEDTAVYYCAAVKYRYAYVPPRFDYWGQGTQVTVSS | low polyreactivity
19 | QDQLVESGGGLVQAGGSLRLSCAASGITFPGYPMGWYRHAPGKEREFVAAISWGGVSTYYADSVMGRFTISRDNAKNTVYLQMNSLKPEDTAVYYCNAEYPWSVVGYDYWGQGTQVTVSS | low polyreactivity
20 | QVQLVESGGGLVQAGGSLRLSCAAYGSIFAHYAMGWYRQAPGKERELVARISWSGGSTYYADSVKGRFSISLDNAKNTVYLQMNSLKPEDTAVYYCSADLTSKSSPQGYRYDYWGQGTQVTVSS | low polyreactivity

Row | Sequence | polyreactivity (PSR sort gate)
21 | QVQLVESGGGLVQAGGSLRLSCAASGSIFSANAMGWYRQAPGKERELVAAIRRTGGSTYYADSVKGRFTISRDNAKNTVYLQMNSLKPEDTAVYFCTKRHSILYEGGYDYWGQGTQVTVSS | low polyreactivity
22 | QVQLVESGGGLVQAGGSLRLSCAASGRTFYIYAMGWYRQAPGKERELVAAINSGGSTYYADSVKGRFTISRDNAKNTVYLQMNSLKPEDTAVYYCAATKGYYFFGDRDYWGQGTQVTVSS | low polyreactivity
23 | QVQLVESGGGLVQAGGSLRLSCAASGFIFSYYVMGWYRQAPGKERELVAGISKRGGSTRYADSVKGRFTISRDNAKNTVYLQMNSLKPEDTAVYYCNRLPYLHFAGRLTNYDYWGQGTQVTVSS | high polyreactivity
24 | QVQLVESGGGLVQAGRSLRLSCAASGSILGTYAMGWYRQAPGKERELVAAISSSGRTSYADSVKGRFTISRDNAKNTVYLQMNSLKPEDTAVYYCNASNYIVLINDPDAAPWLYDYWGQGTQVTVSS | low polyreactivity
25 | QVQLVESGGGLVQAGGSLRLSCAASGSTFDTYAMGWYRPAPRKERELLAAISRSGTSTYYADSVKGRFTISRDNAKNTVYLQMNSLKPEESAVYYCAAYGPRVNGEIGREYYYWGQGTQVTVSS | low polyreactivity
26 | QVQLVESCGGLVQAGGSLRLSCAGSGSTFVYYAMGWSRQAPGQERELVAAISRSGGSTYYADSVKGRFTISRDNAKNTVYLQMHSLKPEDTAVYYCNKYAIFPAYRYPRSDYWGQGTQVTVSS | high polyreactivity
27 | QVQLVESGVGLVQAGGSLRLSCAASGSTFYQYAIGWYRQAPVKERELVAAISKSGGSTYYADSVKGRFTISRDNAKNTVYLQMNSLKPEDTAVYYCATRWIKGRKMDYWGHGTQVTVSS | high polyreactivity
28 | QVQLVESGGGLVQAGGSLRLSCAASGRTLRRYAMGSYREAPGKERELVATISGRGGSTYYADSVMGRFTISRDNAKNTVYLQMNSLKPEYTAVYYCNRVTSRVSGRYSYDYWGQGTQVTVSS | high polyreactivity
29 | QVQLVESAVGLVQAGGSLRLSCAASGTTFVRYAMGWYRQAPGKEREFVAASSKSGGSTYYADSVKGRFTISRDNAKNPVYLQMNSLKPEDTAVYYCATRTTYGQSGSAGPRPSNYWGQGTQVTVSS | low polyreactivity
30 | QVQLVESGGGLVQAGGSLRLSCAASGFTFTPNAMGWYRQAPGKERELVAITWSDGNTYYADSVKGRFTISRDNAKNTVYLQMNSLKPEDTAVYYCNADSTQGAWWPWLNDYWGQGTQVTVSS | high polyreactivity
31 | QVQLVESGGGLVQAGGSLRLSCAASGRTFYKYAMGWYRQAPGKERELVAVINWSGGRTYADSVKGRFTISRDNAKNTVYLQMNSLKPEDTAVYYCNAESYEFHRAWGDYDYWGQGTQVTVSS | low polyreactivity
32 | QVQLVESGGGLVQAGGSLRLSCAASGSTFYYNAMGCYRQAPGKERELVAAISSDGSTNYADSVKGRFTISRDNAKNTVYLQMNSLKPEDTAVYYCAAENIVYVRSNWYWGYDYWGQGTQVTVSS | low polyreactivity
33 | QVQLVESGGGLVQAGGSLPLSSAAYGSIFYYNAMGWYRQAPGKERELVAAISYSGDSTSYADSVKGRFTISRDNAKNYVFLQMYRLKPEDTAVFYCAAEQDYEDFYEDYYWGQGTQVTVSS | high polyreactivity
34 | QVQLVESGGGLVQAGGSLRLSCAASGLIFSQNAMGWYRQAPGKERELVARITLSGTSTYYADSVKGRFTISRDNAKNTVYLQMNSLKPEDTAVYYCNTRSYSYYVPYRYDYWGQGTQVTVSS | high polyreactivity
35 | QVQLVESGGGLFQAGGSLRLSCAASGIIFYHYAMGWYRQAPGKERELVAAITRSGSRTYYADSVKGRFTISRDNAKNTVYLQLNSLKPEDTAVYYCAYRRRWYGIRNYYWGQGTQVTVSS | high polyreactivity
36 | QVQLVESGGGLVQAGGSLRLSCAASGRIIGLYTMGWYRQAPGKERELVARITSGDRTYYADSVKGRFTISRDNAKNTVYLQMNSLKPEDTAVYYCAAEFTYRYDYWGQGTQVTVSS | high polyreactivity
37 | QVQLVESGGGLVQAGGSLRLSCAASGSIFYKYAMGWYRQAPGKERELVATIRASGGRTYYADSVKGRFTISRDNAKNTVYLQMNSLKPEDTAVYYCAKYTTRGVYRSWPKDMDYWGQGTQVTVSS | low polyreactivity
38 | QVQLVESGGGLVQAGGSLRLSCAASGSIFSVNAMGWYRQAPGKEREFVAGISTSGGSTYYADSVKGRFTISRDNAKNTVYLQMNSLKPEDTAVYYCAKGNFLYWQVRYYRPYKSRFYYWGQGTQVTVSS | low polyreactivity
39 | QVQLVESGGGLVQAGGSLRLSCASSGFTFLINAMGWYRQAPGKERDLVAAIRSGGSTNYADSVKGRFTISRDNAKNTVYLQMNSLKPEDTAVYYCAARRYYPYKYRYGYWGQCTQVTVSS | high polyreactivity
40 | QVQLVESGGGLVQAGGSLRLSCAASGITLSIYAMGWYRQAPGKERELVAAINGNGGSTYYADSVKGRFTISRDNAKNTVYLQMNSLKPEDTAVYYCAVTDYVYEHDDYWGQGTEVTVSS | low polyreactivity
